Assay [1] has as its target T1, human CEACAM5 expressed on cancer cell lines (MKN-45, NCI-H441, SNU-16, SK-CO-1, LS174T) (human, UniProt P06731 35-685).
T1 construct: Endogenous CEACAM5 of human cancer cell lines; the cell line is named under assay or readout; also called CEACAM5-positive cell lines; MKN45 cell line expressing human CEACAM5
T1 sequence: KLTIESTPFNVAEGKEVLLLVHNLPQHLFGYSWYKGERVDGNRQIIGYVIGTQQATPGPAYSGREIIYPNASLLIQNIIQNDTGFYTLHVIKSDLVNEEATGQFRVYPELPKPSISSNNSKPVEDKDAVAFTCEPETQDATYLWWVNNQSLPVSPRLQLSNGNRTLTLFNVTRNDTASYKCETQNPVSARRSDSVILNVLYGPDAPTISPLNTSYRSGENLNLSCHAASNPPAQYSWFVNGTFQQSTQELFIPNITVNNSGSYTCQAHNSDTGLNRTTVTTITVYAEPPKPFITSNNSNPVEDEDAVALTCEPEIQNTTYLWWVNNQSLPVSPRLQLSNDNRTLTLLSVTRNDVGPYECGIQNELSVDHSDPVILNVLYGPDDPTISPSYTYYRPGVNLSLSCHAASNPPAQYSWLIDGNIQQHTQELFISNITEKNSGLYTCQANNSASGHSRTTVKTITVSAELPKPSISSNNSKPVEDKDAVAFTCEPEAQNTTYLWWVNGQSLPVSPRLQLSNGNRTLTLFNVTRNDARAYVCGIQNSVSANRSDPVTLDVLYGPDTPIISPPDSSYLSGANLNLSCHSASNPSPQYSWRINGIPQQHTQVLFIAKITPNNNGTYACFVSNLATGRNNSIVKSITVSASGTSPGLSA
Nature of the assay: cell binding on MKN45 cells, average of several experiments.

In assay [2] the target is T1, human CEACAM5 expressed on cancer cell …. Nature of the assay: cell-based or functional assay.
The target is the same in assay [3]. Nature of the assay: cell-based or functional assay. This is another data set of the same source.

The text below walks through data of patent US20240010749A1 (Merck KGaA, published 2024).

B1: hmn-14 (antibody, human IgG1, kappa, V domains shown)
VH: EVQLVESGGGVVQPGRSLRLSCSASGFDFTTYWMSWVRQAPGKGLEWIGEIHPDSSTINYAPSLKDRFTISRDNAKNTLFLQMDSLRPEDTGVYFCASLYFGFPWFAYWGQGTPVTVSS
VL: DIQLTQSPSSLSASVGDRVTITCKASQDVGTSVAWYQQKPGKAPKLLIYWTSTRHTGVPSRFSGSGSGTDFTFTISSLQPEDIATYYCQQYSLYRSFGQGTKVEIKR
notes: Known comparator antibody, human IgG; also called labetuzumab
Turning to B1, a half-maximal effect in assay [1] (EC50) was put at 16 nM.

B2: ADC1 (mAb1-glucuronid-exatecan) (other)
heavy: EVQLQESGPGLVKPSQTLSLTCTVSDGSVSRGGYYLTWIRQHPGKGLEWIGYIYYSGSTYFNPSLRSRVTMSVDTSKNQFSLKLSSVTAADTAVYYCARGIAVAPFDYWGQGTLVTVSSASTKGPSVFPLAPSSKSTSGGTAALGCLVKDYFPEPVTVSWNSGALTSGVHTFPAVLQSSGLYSLSSVVTVPSSSLGTQTYICNVNHKPSNTKVDKRVEPKSCDKTHTCPPCPAPPVAGPSVFLFPPKPKDTLMISRTPEVTCVVVDVSHEDPEVKFNWYVDGVEVHNAKTKPREEQYNSTYRVVSVLTVLHQDWLNGKEYKCKVSNKALPSSIEKTISKAKGQPREPQVYTLPPSREEMTKNQVSLTCLVKGFYPSDIAVEWESNGQPENNYKTTPPVLDSDGSFFLYSKLTVDKSRWQQGNVFSCSVMHEALHNHYTQKSLSLSPG
light: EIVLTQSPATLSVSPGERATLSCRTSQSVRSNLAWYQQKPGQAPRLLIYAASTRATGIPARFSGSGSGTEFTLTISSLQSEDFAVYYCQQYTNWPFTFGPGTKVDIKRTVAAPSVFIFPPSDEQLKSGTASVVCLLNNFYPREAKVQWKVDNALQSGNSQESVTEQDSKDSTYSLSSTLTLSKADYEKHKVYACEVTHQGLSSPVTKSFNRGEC
modifications: exatecan attached through the glucuronide linker of DL1 (maleimide) to cysteines of reduced interchain disulfides; DAR 7.9
Take B2: the “fold higher potency than ADC SAR DM4 against SK-CO-1 cancer cells (cell viability)” value in assay [2] was determined as 2.9 fold. Moreover, in assay [3], the “IC50 [M], cell viability (CellTiter-Glo, 6 days), LS174T” value was 3.8e-10 M; the “IC50 [M], cell viability (CellTiter-Glo, 6 days), MKN-45” value is 6.2e-10 M; the “IC50 [M], cell viability (CellTiter-Glo, 6 days), SK-CO-1” value amounted to 8.5e-11 M; the “IC50 [M], cell viability (CellTiter-Glo, 6 days), SNU-16” value was determined as 3.2e-10 M.

B3: mAb1 (antibody, human IgG1, kappa)
heavy: B2 heavy
light: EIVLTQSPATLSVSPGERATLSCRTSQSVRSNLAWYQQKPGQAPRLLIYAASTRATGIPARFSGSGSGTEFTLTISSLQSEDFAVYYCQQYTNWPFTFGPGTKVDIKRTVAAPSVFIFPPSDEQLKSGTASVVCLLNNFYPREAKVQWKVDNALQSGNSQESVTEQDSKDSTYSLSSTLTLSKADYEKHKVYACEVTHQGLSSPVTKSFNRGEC
notes: Labelled with pHrodo in the internalization assay; also called so8G4
With B3, the EC50 (usually the concentration giving half of the maximal effect) in assay [1] turned out to be 10.4 nM.

B4: ADC2 (mAb1-AAN-exatecan) (other)
heavy: B2 heavy
light: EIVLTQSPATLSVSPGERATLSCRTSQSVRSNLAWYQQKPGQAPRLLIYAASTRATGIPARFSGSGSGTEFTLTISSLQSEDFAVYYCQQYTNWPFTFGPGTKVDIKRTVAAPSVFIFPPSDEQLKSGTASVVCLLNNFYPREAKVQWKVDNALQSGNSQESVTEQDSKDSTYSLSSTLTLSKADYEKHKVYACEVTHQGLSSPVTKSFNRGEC
modifications: exatecan attached through the legumain-cleavable Ala-Ala-Asn linker of DL2 (maleimide) to cysteines of reduced interchain disulfides; DAR 7.6
As to B4, in assay [2], the “fold higher potency than ADC SAR DM4 against SK-CO-1 cancer cells (cell viability)” value came to 2.7 fold. In assay [3], the “IC50 [M], cell viability (CellTiter-Glo, 6 days), LS174T” value came to 2.8e-10 M; the “IC50 [M], cell viability (CellTiter-Glo, 6 days), MKN-45” value turned out to be 4.7e-10 M; the “IC50 [M], cell viability (CellTiter-Glo, 6 days), SK-CO-1” value is 6.9e-11 M; the “IC50 [M], cell viability (CellTiter-Glo, 6 days), SNU-16” value worked out at 2.8e-10 M.
